Test results published in patent publication US11448657B2, “Methods and kits for assessing Heparanase procoagulant activity, compositions comprising Heparanase, and methods for the treatment of coagulation-related disorders” (RAMBAM MED-TECH, priority 2011, dated 2022).
“Also recorded” adds a separate entry of the source.

How the values were obtained:
TF = target: T1, TF (Homo sapiens, UniProt P13726); experiment: Far-western analysis of heparanase binding to TF and TFPI; conditions: heparanase 1 μg/mL, 2 h, 4° C.; TF 100 ng, TFPI 100 ng
T1 construct: purchased American Diagnostica (Stanford, Conn., USA)
T1 sequence (P13726 33-295): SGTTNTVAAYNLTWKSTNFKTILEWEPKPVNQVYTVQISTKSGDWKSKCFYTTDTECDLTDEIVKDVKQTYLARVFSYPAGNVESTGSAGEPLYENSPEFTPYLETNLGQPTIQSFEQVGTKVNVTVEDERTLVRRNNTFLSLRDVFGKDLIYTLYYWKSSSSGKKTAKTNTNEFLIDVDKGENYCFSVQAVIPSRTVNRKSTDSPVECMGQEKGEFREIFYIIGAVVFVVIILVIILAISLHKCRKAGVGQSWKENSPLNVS
Description: FIG. 7B. Far-western analysis. Recombinant TF (100 ng) and TFPI (100 ng) were resolved by SDS-PAGE under reducing conditions using a 10% gradient polyacrylamide gel. After electrophoresis, proteins were transferred to a polyvinylidene fluoride membrane. The membrane was incubated for 2 h with GS3 active heparanase protein (1 μg/mL, 4° C.). Next, the membrane was probed with anti-heparanase antibody followed by horseradish peroxidase-conjugated secondary antibody and chemiluminescence substrate, as described in the Design and Methods section.

whole blood = experiment: Thromboelastography in citrated whole blood; set-up: species or system human
Description: Thromboelastogram studies. The assay includes addition of factor VIIa, X and calcium to blood drawn into citrate in the presence or absence of heparanase. Each time, a sample with addition of heparanase (Hepa) and a sample without (Con)—were analyzed in parallel. R—The period of latency from the time that the blood was placed in the analyzer until the initial fibrin formation: this represents the coagulation factor activation.
Angle—measures the rapidity of fibrin build-up and cross-linking: this represents the coagulation factor amplification. MA—A direct function of the maximum dynamic properties of fibrin and platelet bonding: signifies the ultimate strength of the clot. […] Representative results are shown.
The assay was performed according to the manufacturer's recommendations. Briefly, 3 mL of healthy donor's whole blood were collected in a bottle containing 3.2% (0.12M) sodium citrate and stored at room temperature. Recalcification and TEG® measurements at 37° C. were performed in disposable cups of the Thrombelastograph® coagulation analyzer (Haemoscope Corporation, Skokie, Ill., USA).
(§1) Next, the procoagulant effect of heparanase in human plasma was tested. Using an ELISA method [Shafat I. et al., Biochem Biophys Res. Commun. […] When heparanase, factor VIIa and factor X were incubated (15 min, 37° C.) with pooled normal human plasma from five healthy donors, followed by the addition of a chromogenic substrate for factor Xa, a 7- to 8-fold increase in factor Xa levels was obtained com-pared to levels in plasma incubated in the absence of heparanase (FIG. 2). In this condition the coagulation was mainly dependent on the concentration of endogenous TF, as described previously [Suefuji H. et al., Am Heart J. 1997, 134(2 Pt. 1):253-259; Kim H K et al., Cardiology. 2000, 93(1-2):31-36]. The effect of heparanase was also tested in whole blood using thromboelastography. […]

normal human plasma = experiment: Factor Xa generation in pooled normal human plasma; format: biochemical; conditions: factor VIIa and factor X added, 15 min 37° C.
Description: Increasing doses of heparanase were added to pooled normal human plasma (25 μL plasma). After 15 min at 37° C., chromogenic substrate for the detection of factor Xa was added (1 mM). The mean value±SD of three independent experiments is shown. Note a 7- to 8-fold increase in coagulation activity in the presence of heparanase.
as §1, with “thromboelastography. Citrated blood samples from healthy donors to which factor VIIa (0.04 μM) and factor X (1.4 μM) were added were recalcified according to the manufacturer's recommendations (final concentration of CaCl2) 8 mM) and arranged in the disposable cups of the thromboelastogram.” for “thromboelastography.”

TF-factor VIIa complex = target: T2, TF-factor VIIa complex (Homo sapiens, UniProt P13726); experiment: Thrombin generation: prothrombin added to the factor Xa generation assay (chromogenic substrate for thrombin); format: biochemical; conditions: prothrombin 222 μM added, 15 min 37° C.
T2 construct: purchased American Diagnostica (Stanford, Conn., USA)
T2 sequence (P13726 33-295): as above
T2 sequence (P08709 61-212 partner limits assumed): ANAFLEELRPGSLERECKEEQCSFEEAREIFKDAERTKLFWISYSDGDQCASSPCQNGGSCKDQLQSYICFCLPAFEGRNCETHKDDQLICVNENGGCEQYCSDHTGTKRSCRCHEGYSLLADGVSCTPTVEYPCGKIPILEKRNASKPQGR
T2 sequence (P08709 213-466 partner limits assumed): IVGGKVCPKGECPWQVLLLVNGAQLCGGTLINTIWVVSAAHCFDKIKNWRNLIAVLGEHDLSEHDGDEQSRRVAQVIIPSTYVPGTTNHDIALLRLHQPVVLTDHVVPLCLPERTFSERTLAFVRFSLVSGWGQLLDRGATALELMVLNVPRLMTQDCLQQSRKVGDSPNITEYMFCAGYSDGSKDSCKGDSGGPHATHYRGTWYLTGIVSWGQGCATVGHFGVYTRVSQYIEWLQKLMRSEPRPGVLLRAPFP
Description: FIG. 1D. Heparanase increases thrombin levels. Recombinant human TF, recombinant human factor VIIa, plasma-derived human factor X, and plasma-derived human prothrombin were incu-bated (15 min, 37° C.) in a total volume of 125 μL. Chromogenic substrate for the detection of thrombin was then added (1 mM). Human recombinant heparanase (Hepa) was added prior to the addition of the coagulation factors. The mean value±SD of three independent experiments is shown. Note a 3-fold increase in coagulation activity in the presence of heparanase.
In order to verify that factor Xa produced in the presence of heparanase is active, thrombin generation, the next step in the coagulation cascade, was examined. The experiment described above (FIG. 1A) was repeated and plasma-derived human prothrombin (222 μM) was added following the addition of factor X. After 15 minutes at 37° C., chromogenic substrate for thrombin was added (1 mM). In the presence of heparanase, thrombine generation was increased (FIG. 1D).

B1: heparanase: single chain GS3 active heparanase, comprised of the 8 kDa and 50 kDa heparanase heterodimer (8+50), recombinant human (protein, listed as Homo sapiens)
chain 1: DPAQDVVDLDFFTQEPLHLVSPSFLSVTIDANLATDPRFLILLGSPKLRTLARGLSPAYLRFGGTKTDFLIFDPKKE
chain 2: DPGKKFKNSTYSRSSVDVLYTFANCSGLDLIFGLNALLRTADLQWNSSNAQLLLDYCSSKGYNISWELGNEPNSFLKKADIFINGSQLGEDFIQLHKLLRKSTFKNAKLYGPDVGQPRRKTAKMLKSFLKAGGEVIDSVTWHHYYLNGRTATREDFLNPDVLDIFISSVQKVFQVVESTRPGKKVWLGETSSAYGGGAPLLSDTFAAGFMWLDKLGLSARMGIEVVMRQVFFGAGNYHLVDENFDPLPDYWLSLLFKKLVGTKVLMASVQGSKRRKLRVYLHCTNTDNPRYKEGDLTLYAINLHNVTKYLRLPYPFSNKQVDKYLLRPLGPHGLLSKSVQLNGLTLKMVDDQTLPPLMEKPLRPGSSLGLPAFSYSFFVIRNAKVAACI
modifications: single-chain GS3 linker
In the case of B1, the “binding to TF and TFPI on membrane” value (TF) is reported as “A clear band was revealed in the TF-heparanase lane but not in the TFPI-heparanase lane”, the “time to clot formation (R) at the highest dose” value (whole blood; heparanase 4 μM) is reported as “effect on time to clot formation was abolished; also recorded: no effect on R is detected” and the “thrombus strength (MA)” value (whole blood; increasing doses of heparanase) is reported as “increase in thrombus strength; also recorded: stronger”. The “time to clot formation (R)” value (whole blood; increasing doses of heparanase, factor VIIa 0.04 μM, factor X 1.4 μM, recalcified blood) was “significant reduction in time to clot formation; also recorded: significantly faster”, the “increase in coagulation activity (factor Xa levels) in plasma” value (normal human plasma) was 7- to 8 fold and the “increase in coagulation activity (thrombin level)” value (TF-factor VIIa complex) was 3 fold.
